From paper PMC11733253 come the findings set out here.

The assay concerns the target MRAS wild type, recombinant from E. coli (human) (UniProt O14807). The assay is described as follows: ITC. A general note: ITC needs no label: the signal is the heat of the interaction.

With “BRAF-RBD (from UniProt P15056 150-233) (domain or fragment)”, the Kd came out at 8.3 µM.

Usually Kd stands for the free concentration of one partner at which half of the binding sites on the other are occupied at equilibrium, for simple one-to-one binding.
